Our source for the K0.5 values is article PMC13042586, “ATP13A2 is involved in intracellular polyamine transport in lung epithelial cells” (FEBS Open Bio, 2025).

Substrate in the data set: NCCCCNCCCN
As to the kind of experiment: polyamine-dependent ATPase activity (Pi release, molybdate), Hill fit. The class given is biochemical, Homo sapiens. The following applies: microsomes of overexpressing H441 cells, 2 mM ATP, 5 mM MgCl2, 20 mM Tris-HCl pH 8.0, 10% glycerol, 1 mM DTT, 37 °C, 30 min, Hill coefficient n = 1, constant printed as Kd but from ATPase stimulation. The source says:
polyamine-dependent ATPase activity (Pi release, molybdate), Hill fit on ATP13A2 | Polyamine dependence of ATP13A2 was fitted to the Hill equation

B1: ATP13A2 (Homo sapiens) (protein)
chain: MSADSSPLVGSTPTGYGTLTIGTSIDPLSSSVSSVRLSGYCGSPWRVIGYHVVVWMMAGIPLLLFRWKPLWGVRLRLRPCNLAHAETLVIEIRDKEDSSWQLFTVQVQTEAIGEGSLEPSPQSQAEDGRSQAAVGAVPEGAWKDTAQLHKSEEAVSVGQKRVLRYYLFQGQRYIWIETQQAFYQVSLLDHGRSCDDVHRSRHGLSLQDQMVRKAIYGPNVISIPVKSYPQLLVDEALNPYYGFQAFSIALWLADHYYWYALCIFLISSISICLSLYKTRKQSQTLRDMVKLSMRVCVCRPGGEEEWVDSSELVPGDCLVLPQEGGLMPCDAALVAGECMVNESSLTGESIPVLKTALPEGLGPYCAETHRRHTLFCGTLILQARAYVGPHVLAVVTRTGFCTAKGGLVSSILHPRPINFKFYKHSMKFVAALSVLALLGTIYSIFILYRNRVPLNEIVIRALDLVTVVVPPALPAAMTVCTLYAQSRLRRQGIFCIHPLRINLGGKLQLVCFDKTGTLTEDGLDVMGVVPLKGQAFLPLVPEPRRLPVGPLLRALATCHALSRLQDTPVGDPMDLKMVESTGWVLEEEPAADSAFGTQVLAVMRPPLWEPQLQAMEEPPVPVSVLHRFPFSSALQRMSVVVAWPGATQPEAYVKGSPELVAGLCNPETVPTDFAQMLQSYTAAGYRVVALASKPLPTVPSLEAAQQLTRDTVEGDLSLLGLLVMRNLLKPQTTPVIQALRRTRIRAVMVTGDNLQTAVTVARGCGMVAPQEHLIIVHATHPERGQPASLEFLPMESPTAVNGVKDPDQAASYTVEPDPRSRHLALSGPTFGIIVKHFPKLLPKVLVQGTVFARMAPEQKTELVCELQKLQYCVGMCGDGANDCGALKAADVGISLSQAEASVVSPFTSSMASIECVPMVIREGRCSLDTSFSVFKYMALYSLTQFISVLILYTINTNLGDLQFLAIDLVITTTVAVLMSRTGPALVLGRVRPPGALLSVPVLSSLLLQMVLVTGVQLGGYFLTLAQPWFVPLNRTVAAPDNLPNYENTVVFSLSSFQYLILAAAVSKGAPFRRPLYTNVPFLVALALLSSVLVGLVLVPGLLQGPLALRNITDTGFKLLLLGLVTLNFVGAFMLESVLDQCLPACLRRLRPKRASKKRFKQLERELAEQPWPPLPAGPLR
notes: full-length with C-terminal TEV site, Halo tag and 6xHis (tags kept; ATP13A2-Halo, theoretical mass 165 K), adenovirus-mediated overexpression in NCI-H441 cells, microsome fraction
Consider B1, for which the K0.5 is listed as 1.00 mM.
